Experimental data as given in patent US20100291089A1, “LIGAND OF REGULATING IMMUNE RESPONSE, AND USE THEREOF IN TREATING AN IMMUNE RESPONSE-RELATED DISEASE” (POSTECH ACADEMY-INDUSTRY FOUNDATION, priority 2005, published 2010).
Where no end group is shown, it is not given here. [ ]: non-standard residue; d: D form.

Tests used:
human neutrophils = experiment: Intracellular calcium mobilization (fura-2) in human neutrophils; assay type: cell-based; details: 1 M PACAP27 and 10 nM WKYMVm
Protocol: Neutrophils were stimulated with 1 μM of PACAP27 (SEQ ID NO:1), PACAP38 (SEQ ID NO:2), or VIP (SEQ ID NO:3), and calcium concentrations were measured for 10 min. In order to measure EKR phosphorylation, each peptide hormones was used with 1 μM concentrations for 5 min. For cAMP measurement, each peptide hormones was used with 1 μM concentrations for 10 min.
Intracellular calcium concentrations ([Ca^2+]i) were determined using Grynkiewicz's method with fura-2/AM, as described in “Grynkiewicz, G., M. Poenie, and R. Y. Tsien. 1985. […] J. Biol. Chem. 260:3440-3450”. Briefly, the cells prepared in Example 1.2 were incubated with 3 µM fura-2/AM at 37° C. for 50 minutes in fresh serum free RPMI 1640 medium with continuous stirring. The incubated cells (2×10^6) were aliquoted for each assay in Ca^2+-free Locke's solution (154 mM NaCl, 5.6 mM KCl, 1.2 mM MgCl2, 5 mM HEPES (pH 7.3), 10 mM glucose, and 0.2 mM EGTA). Fluorescence changes at 340 and 380 nm using a common emission wavelength of 500 nm were measured, and fluorescence ratios were converted to [Ca2+]i, as described in above Grynkiewicz, G. et al.

HUVECs [1] = experiment: HUVEC wounding migration assay; assay type: cell-based, human; details: SAA 5 μM, WKYMVm 10 nM, VEGF 20 ng/ml; 12 h
Protocol: […] After 12 h of incubation, migration was quantitated via counts of the cells migrating beyond the reference line. For the tube formation assay, the HUVECs were seeded on a layer of previously polymerized Matrigel (BD Biosciences) with SAA (SEQ ID NO:19) (5 μg/ml), WKYMVm (SEQ ID NO:5) peptide (10 nM), a specific ligand for FPRL1 (32, 33) or VEGF (20 ng/ml). After 18 h of incubation, the cell morphology was visualized via phase-contrast microscopy and photographed.

HUVECs [2] = experiment: HUVEC proliferation ([3H]-thymidine incorporation); assay type: cell-based, human; details: 48 h
Protocol: In brief, fresh synovial tissues were minced into 2- to 3-mm pieces, then treated for 4 h with 4 mg/ml type I collagenase (Worthington Biochemical), and maintained in Dulbecco's Modified Eagle's Medium (DMEM) containing 10% FBS at 37° C. in an atmosphere containing 5% CO2. […] MH7A cells, the immortalized synoviocytes that harbor the SV40 T antigen, were grown in DMEM supplemented with 10% FBS, as previously described (Miyazawa, K, A. Mori, and H. Okudaira. 1998. Establishment and characterization of a novel human rheumatoid fibroblast-like synoviocyte line, MH7A, immortalized with S[…] antigen. J. Biochem. 124: 1153-1162), and then employed in some of the experiments. Human umbilical vein endothelial cells (HUVECs) were isolated from fresh human umbilical cords via collagenase (Worthington Biochemical) digestion, and then maintained in 20% FBS-containing M-199 medium (Sigma, St. Louis, Mo.), as previously described. All HUVECs were used after no more than five passages. The RA FLS, OA FLS, and HUVECs were plated onto 24-well culture dishes at a density of 2×10^4 cells/well, and then permitted to attach overnight. […] Cell growth was also evaluated via cell counts. Control and mitogen-treated cells were harvested by trypsinization, and the number of cells was determined with a hemocytometer, under ×100 magnification.

HUVECs [3] = experiment: HUVEC tube formation assay on Matrigel; assay type: cell-based, human; details: SAA 5 μM, 18 h
Protocol: The wounding migration and tube formation activity of the HUVECs were measured as previously described (30, 31). In brief, HUVECs plated at confluence on 60-mm culture dishes were wounded with pipette tips, then treated with SAA (SEQ ID NO:19) (0-5 μg/ml), WKYMVm (SEQ ID NO:5) (10 nM), or VEGF (20 ng/ml) in M199 medium, supplemented with 1% serum and 1 mM thymidine. After 12 h of incubation, migration was quantitated via counts of the cells migrating beyond the reference line. […] After 18 h of incubation, the cell morphology was visualized via phase-contrast microscopy and photographed.

aortic rings = experiment: Rat aorta ring assay; details: ex vivo, 7 days
Protocol: Aortas from male Sprague-Dawley rats were cross-sectioned into rings, and mounted onto polymerized Matrigel dishes. Matrigel (150 μl) was then positioned on top and allowed to gel. After 7 days, the aortic rings, incubated with PBS, SAA (SEQ ID NO:19) (3 and 5 μg/ml), WKYMVm (SEQ ID NO:5) (10 nM), VEGF (20 ng/ml), or FBS (10%) were analyzed under an inverted microscope.

Molecule	calcium signaling on sequential stimulation (cross-desensitization) (human neutrophils)	migratory activity of HUVECs relative to control cells (HUVECs [1])	concentration of maximum effects on HUVEC DNA synthesis (HUVECs [2])	DNA synthesis in HUVECs (HUVECs [2]; SAA 0.1 to 5 μM)	formation of tube-like structures (HUVECs [3])	sprouting of endothelial cells from aortic rings (aortic rings)
WKYMVm: specific agonist peptide for FPRL1, SEQ ID NO:5 (WKYMV[dM]; listed as Homo sapiens)	bidirectional desensitization	approximately 3 times				
SAA: Serum amyloid A, multi-functional apolipoprotein, 12- to 14-kDa, SEQ ID NO:19 (protein, listed as Homo sapiens) MKLLTGLVFCSLVLGVSSRSFFSFLGEAFDGARDMWRAYSDMREANYIGSDKYFHARGNYDAAKRGPGGVWAAEAISDARENIQRFFGHGAEDSLADQAANEWGRSGKDPNHFRPAGLPEKY		approximately 3 times	5 µM	dose-dependent manner	far superior	increased as the result of SAA treatment, in a dose-dependent manner
